{"source": "paper PMC3916286", "about": "“NSUN4 Is a Dual Function Mitochondrial Protein Required for Both Methylation of 12S rRNA and Coordination of Mitoribosomal Assembly”", "target": "NSUN4 (Homo sapiens, UniProt Q96CB9 26-384)", "sequence (Q96CB9 26-384)": "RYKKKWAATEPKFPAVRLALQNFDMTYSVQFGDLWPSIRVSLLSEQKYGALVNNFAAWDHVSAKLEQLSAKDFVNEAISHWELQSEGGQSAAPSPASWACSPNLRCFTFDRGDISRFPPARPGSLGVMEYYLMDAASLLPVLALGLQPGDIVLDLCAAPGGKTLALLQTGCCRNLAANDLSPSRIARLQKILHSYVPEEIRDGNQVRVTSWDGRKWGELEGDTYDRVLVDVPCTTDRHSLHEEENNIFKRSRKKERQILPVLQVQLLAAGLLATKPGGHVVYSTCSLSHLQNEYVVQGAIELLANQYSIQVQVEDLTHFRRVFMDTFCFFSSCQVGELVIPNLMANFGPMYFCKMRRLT", "assay": "EMSA; NSUN4 without MTERF4; protein 0-2.56 uM; EMSA with 40 ng RNA and 0-2.56 uM protein, essentially as in cited ref 15; buffer, salt, pH and temperature not given", "details": "protein: recombinant; single strand folded, closed by added GGG/CCC"}
{"binder": "ds12S:878-949 (structured_RNA) RNA: GGGGUUGAACAGGGCCCUGAAGCGCGUACACACCGCCCGUCACCCUCCUCAAGUAUACUUCAAAGGACAUUUAACCCC", "values": [{"measurement": "binding result", "value": "binds"}]}
